B1: yeast ornithine decarboxylase (Saccharomyces cerevisiae SPE1) (enzyme, UniProt P08432 1-466, looked up)
chain: MSSTQVGNALSSSTTTLVDLSNSTVTQKKQYYKDGETLHNLLLELKNNQDLELLPHEQAHPKIFQALKARIGRINNETCDPGEENSFFICDLGEVKRLFNNWVKELPRIKPFYAVKCNPDTKVLSLLAELGVNFDCASKVEIDRVLSMNISPDRIVYANPCKVASFIRYAASKNVMKSTFDNVEELHKIKKFHPESQLLLRIATDDSTAQCRLSTKYGCEMENVDVLLKAIKELGLNLAGVSFHVGSGASDFTSLYKAVRDARTVFDKAANEYGLPPLKILDVGGGFQFESFKESTAVLRLALEEFFPVGCGVDIIAEPGRYFVATAFTLASHVIAKRKLSENEAMIYTNDGVYGNMNCILFDHQEPHPRTLYHNLEFHYDDFESTTAVLDSINKTRSEYPYKVSIWGPTCDGLDCIAKEYYMKHDVIVGDWFYFPALGAYTSSAATQFNGFEQTADIVYIDSELD
B2: yeast antizyme (Saccharomyces cerevisiae), N-terminal 6XHis-tagged, full length (natural protein, UniProt Q02803 1-292, looked up)
chain: MYEVIQKRKTKIINVLQSPELMRLIEDPSNLGISLHFPVSSLLKSNKCTPMPKLSTYSLASGGFKDWCADIPLDVPPEIDIIDFYWDVILCMESQFILDYNVPSKNKGNNQKSVAKLLKNKLVNDMKTTLKRLIYNENTKQYKNNNSHDGYNWRKLGSQYFILYLPLFTQELIWCKLNENYFHVVLPSLLNSRNVHDNHSTYINKDWLLALLELTSNLNQNFKFEYMKLRLYILRDDLINNGLDLLKNLNWVGGKLIKNEDREVLLNSTDLATDSISHLLGDENFVILEFEC

In assay [1] the target is B2. Briefly: SEC-MALS.
Assay [2] concerns the target B1. As to the kind of experiment: SPR.

The record followed here is PMC3064986 (Biochemical and biophysical research communications, 2011).

Take B1: the “stoichiometry N” value in assay [1] came to 1 ODC per AZ.

In assay [2], B2 returned a Kd of 17.3 nM and a kon of 31400 M⁻¹ s⁻¹.
